# Source: US9539338B2, “Polymer-based protein engineering methods to rationally tune enzyme activity, pH-dependence and stability” (Carnegie Mellon University, priority 2013, dated 2017)
# Tests used:
# aprotinin (AP) = target: T1, aprotinin (AP) (Bos taurus, UniProt P00974); assay: Inhibitor binding study with aprotinin; format: biochemical, Bovine; details: 25° C.; for Apparent Vmax / KM/Vmax: pH 8.0
# T1 construct: purchased Sigma Aldrich; host or cells: Nicotiana (tobacco) for aprotinin; bovine pancreas for chymotrypsin
# Protocol: Apparent KM and Vmax values were calculated using EnzFitter by Michelis-Menten curve fitting of substrate against initial velocity plots. (B) Secondary plots with calculated apparent KM and Vmax values were used to determine inhibition constants of aprotinin towards native chymotrypsin.
# FIGS. 23A and B show (A) Substrate/initial velocity plots and (B) secondary plots to determine inhibitor constant for chymotrypsin-pQA200 with aprotinin in 0.1 M sodium phosphate buffer (pH 8) at 25° C. The procedure used was the same as described above for aprotinin and native chymotrypsin.
# Enzyme inhibition was assayed by measuring the hydrolytic activities of samples which contained a fixed concentration of protease and varying amounts of inhibitor, including a blank with no inhibitor. Inhibitors and peptide substrate were simultaneously added to the native and conjugate solutions immediately before measuring initial rates. The initial rate of hydrolysis of the peptide substrate was monitored by recording the increase in absorption at 412 nm. To determine dissociation constant of the enzyme-inhibitor complexes (Ki), Vmax app and KM app were determined by non-linear curve fitting (equation for Michaelis-Menten parameters) of plots of initial rate versus substrate concentration using the Enzfitter software. The dissociation constants were calculated from secondary plot of KM app/Vmax app versus initial inhibitor concentration.
# pepsin = target: T2, pepsin (Sus scrofa, UniProt P00791); assay: Stability to pepsin degradation; format: in vitro ADME, porcine; details: 167 mM HCl, 37° C.
# T2 construct: purchased Sigma Aldrich; host or cells: porcine stomach mucosa
# T2 sequence (P00791 60-385): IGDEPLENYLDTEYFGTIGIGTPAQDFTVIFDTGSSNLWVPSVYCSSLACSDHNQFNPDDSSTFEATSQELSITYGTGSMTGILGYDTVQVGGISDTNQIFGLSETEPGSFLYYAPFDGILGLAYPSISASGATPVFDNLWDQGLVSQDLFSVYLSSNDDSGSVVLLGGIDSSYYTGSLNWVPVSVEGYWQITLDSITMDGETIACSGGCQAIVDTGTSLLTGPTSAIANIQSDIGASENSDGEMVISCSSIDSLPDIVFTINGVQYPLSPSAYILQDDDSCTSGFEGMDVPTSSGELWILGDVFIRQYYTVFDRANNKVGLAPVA
# Protocol: Native CT and CT-conjugates (4 μM) were incubated in 167 mM HCl with 16 nM pepsin at 37° C. in 50 μL aliquots. Samples were retrieved at specified time points and residual activity was measured in 0.1 M sodium phosphate buffer (pH 8.0) at 25° C. with Suc-AAPF-pNA as substrate (288 μM). Each time point was measured in duplicate and residual activity was calculated as the ratio of activity remaining from time zero. As a control, pepsin (16 nM) bioactivity towards Suc-AAPF-pNA was measured at pH 8.0 and no product formation was observed.
# [1] = Stability study: irreversible inactivation at 40° C., pH 7-9, residual activity; format: physicochemical; details: for half-life t1/2: 40 μM enzyme
# Protocol: Native CT and the prepared conjugates (1.5 to 2.0 mL of 40.0 μM) were incubated in 100 mM sodium phosphate buffer at different pH's at 40° C. Aliquots (20 μL) were removed and added into sodium phosphate buffer (180 μL, 100 mM, at 0° C.). The residual activity was calculated as a ratio of initial rates of hydrolysis reaction at given incubation time over the initial activity, which monitored spectrophotometrically as described above. Half-lives for enzyme longevity were estimated by non-linear curve fitting (equation for single exponential decay) using Enzfitter.
# CT inactivation can occur through unfolding and/or autolysis. The polymer component of the PBPE conjugates may stabilize the enzyme by increasing the energy needed to unfold the protein and also by inhibiting autolysis directly. Since the autolysis reaction of proteases is favored when the enzyme concentration is high, (Yang, Z.; Domach, M.; Auger, R.; Yang, F. X.; Russell, A. J. Enzyme Microb. Technol. 1996, 18, 82-89) stability at relatively high enzyme concentration (40 μM) was investigated. At 40° C. the residual activity of the enzyme was measured as a function of pH and shown in FIG. 8, and the first order rate constant for deactivation and half-life were calculated (Table 5).
# [2] = In vitro gastric acid stability, 167 mM HCl, 37° C.; format: physicochemical; details: 167 mM HCl (pH 1), 3 hours
# Protocol: Native CT and CT-conjugates were incubated at 4 μM in 167 mM HCl at 37° C. in 50 μL aliquots. Aliquots were removed at specified time points and residual activity was measured at 25° C. in 0.1 M sodium phosphate buffer (pH 8.0) with Suc-AAPF-pNA as substrate (288 μM). Each time point was measured in duplicate and residual activity was calculated as the ratio of activity remaining from time zero.
# [3] = Thermal stability at 37° C., pH 8.0; format: physicochemical; details: 8 hours incubation at 40 μM, 0.1 M sodium phosphate pH 8.0, 37° C.
# Protocol: Native CT and CT-conjugates (40 μM) were dissolved in 0.1 M sodium phosphate buffer (pH 8.0) and incubated in a water bath in 50 μL aliquots at 37° C. At specified time points, aliquots were removed and diluted to 4 μM using 0.1 M sodium phosphate buffer (pH 8.0). Residual activity, measured in 0.1 M sodium phosphate buffer (pH 8.0) at 25° C., was calculated as the ratio of activity remaining relative to the activity at time zero. Substrate (Suc-AAPF-pNA) concentration was kept constant at 288 μM for each sample and time point. Native CT and conjugate activities were measured in duplicate at each time point.
# [4] = Enzyme stability at 25° C. or 40° C., first order inactivation; format: physicochemical; details: 1 mg enzyme/mL, pH 8.0
# Protocol: Native CT and CT conjugates (1 mg enzyme/mL) were dissolved in 0.1 M sodium phosphate buffer (pH 8.0) and incubated in a water bath at either 25° C. or 40° C. At various time points, aliquots were removed and diluted to 0.1 mg enzyme/mL using 0.1 M phosphate buffer (pH 8.0). Residual activity was calculated as the percentage of activity remaining relative to the activity at time zero. Substrate (Suc-AAPF-pNA) concentration was kept constant at 288 μM for each sample and time points.
substance,measurement,setting,value
α-Chymotrypsin (CT) from bovine pancreas (type II) [Native CT],Apparent Vmax,aprotinin (AP); aprotinin [I]0 0 mM,1.13 mM/s
same,KM/Vmax,aprotinin (AP); aprotinin [I]0 0 mM,76.3 s⁻¹
same,Apparent Vmax,aprotinin (AP); aprotinin [I]0 0.098 mM,1.17 mM/s
same,KM/Vmax,aprotinin (AP); aprotinin [I]0 0.098 mM,149.2 s⁻¹
same,Apparent Vmax,aprotinin (AP); aprotinin [I]0 0.196 mM,1.14 mM/s
same,KM/Vmax,aprotinin (AP); aprotinin [I]0 0.196 mM,242.8 s⁻¹
same,Apparent Vmax,aprotinin (AP); aprotinin [I]0 0.294 mM,1.19 mM/s
same,KM/Vmax,aprotinin (AP); aprotinin [I]0 0.294 mM,314.3 s⁻¹
same,Apparent Vmax,aprotinin (AP); aprotinin [I]0 0.392 mM,1.04 mM/s
same,KM/Vmax,aprotinin (AP); aprotinin [I]0 0.392 mM,431.6 s⁻¹
same,Apparent Vmax,aprotinin (AP); aprotinin [I]0 0.490 mM,1.13 mM/s
same,KM/Vmax,aprotinin (AP); aprotinin [I]0 0.490 mM,569.45 s⁻¹
same,Ki,aprotinin (AP); inhibitor aprotinin,56.3 nM
same,time after which all activity was lost,pepsin,75 min
same,half-life t1/2,"[1]; pH 7.0, 40° C.",7.15 ± 0.91 h
same,half-life t1/2,"[1]; pH 7.0, 40° C., listed as native enzyme",7.2 h
same,initial activity retained,"[1]; pH 7, 40° C., after 6 h",50%
same,half-life t1/2,"[1]; pH 8.0, 40° C.",1.95 ± 0.25 h
same,half-life t1/2,"[1]; pH 9.0, 40° C.",1.53 ± 0.20 h
same,biocatalytic activity lost,"[1]; pH 9, 40° C., after 6 h",70-80%
same,activity maintained,[2],complete activity loss
same,activity lost,[3],lost half of its activity
same,kinact,[4]; 25° C.,0.13 ± 1.2 × 10^−2 days−1
same,t1/2,[4]; 25° C.,5.43 ± 0.51 days
same,kinact,[4]; 40° C.,6.61 ± 0.47 day⁻¹
same,t1/2,[4]; 40° C.,0.10 ± 7.5 × 10^−3 days
